Laboratory results as given in patent publication US20090131317A1, “COMPOUNDS AND PEPTIDES THAT BIND THE TRAIL RECEPTOR” (AFFYMAX, INC., priority 2007, published 2009).
Numbered stars: 1 amine (or outer) side, 2 acyl side, 3 side chain; on linkers, the order of the positions; unused ones are H or OH. Bridge positions count the residues as written; N and C are the ends. Peptide text beside a SMILES is read from it. I, II: the chains in the order shown. TSAT = Tris-succinimidyl aminotriacetate linker; X1 = O=C(CN(CC(=O)[*:2])CC(=O)[*:3])[*:1]; Diglycolyl = O=C(COCC(=O)[*:2])[*:1]; DIG = diglycolic acid linker

Assays:
Jurkat cells = assay type: cell-based
Method: The apoptotic activity of test peptides is measured using a Jurkat proliferation assay.
Jurkat cells are obtained from the American Type Culture Collection (ATCC, Manassas, Va.) and are maintained in RPMI-1640 medium supplemented with 10% FBS, 100 U/mL penicillin, and 100 […] (Growth Medium). […] Cells are resuspended at a density of 1×10^6 cells/mL in Growth Medium, and 50 μl cells is added to each well of the assay plates. The plates are incubated in a 37° C., 5% CO2 incubator for 24-48 hours. Proliferation is assessed by adding 10 μL of MTT stock solution (ATCC, Manassas, Va.) to the wells. The plates are incubated in a 37° C., 5% CO2 incubator for another 2-4 hours, followed by the addition of 100 μL of 20% SDS with 0.01 N HCl. After incubation overnight in a 37° C., 5% CO2 incubator, the plates are quantified by reading the optical density at a wavelength of 595 nm (OD595) in a SpectraMax® M5 microplate reader (Molecular Devices, Sunnyvale, Calif.). The data are analyzed using GraphPad Prism® software (La Jolla, Calif.) to calculate IC50 values from a 4-parameter logistic equation.

HCT-116 cells = assay type: cell-based
Method: The apoptotic activity of test peptides is measured using an HCT-116 proliferation assay. The HCT-116 assay is used to measure the activity of TRAIL R2 agonist peptides using the colon carcinoma cell line HCT-116 (ATCC, Manassas, Va.).
In more detail, a peptide homotrimer based on the peptide monomer sequence of SEQ ID NO: 19 (See, FIG. 8B) is tested for functional activity using the HCT-116 proliferation assay. HCT-116 cells are incubated for one to two days in the presence of serially diluted peptide dimers or peptide trimers. […]
Cell viability is measured using an MTT colorimetric viability assay, a colorimetric assay that analyzes the number of viable cells by measuring the ability of mitochondrial dehydrogenase enzyme in the viable cells to cleave tetrazolium salts added to the culture medium [See, Mosmann (1983) J. Immunol. […] Using this assay, cell proliferation is assessed after 24-48 hours by adding 10 μL of MTT stock solution (ATCC, Manassas, Va.) to the wells. […] After incubation overnight in a 37° C., 5% CO2 incubator, the plates are quantified by reading the optical density at 595 nm (OD595) in a SpectraMax M5 microplate reader (Molecular Devices, Sunnyvale, Calif.). The data are analyzed using GraphPad® Prism software (La Jolla, Calif.) to calculate IC50 values from a 4-parameter logistic equation.

[1] = molecular target: TRAIL R2 receptor on HCT-116 or Jurkat cells (UniProt O14763 56-440, limits assumed); assay: cell-based or functional assay
[2] = molecular target: T1, Recombinant human TRAIL R2-Fc fusion protein (R&D Systems) (human, UniProt O14763 52-182, limits assumed); assay: AlphaQuest competition: displaces biotinylated TRAIL ligand from human TRAIL R2-Fc
T1 construct: Bought from R&D Systems; held on protein A-coated acceptor beads in the AlphaQuest/AlphaScreen assay; also called TRAIL R2 receptor; R2 receptor; not shown: Fc part of the bought fusion protein
Method: The plates are sealed with adhesive sealing film and covered with aluminum foil, centrifuged at 600 rpm for 30 seconds and incubated overnight in the dark. […] The raw data are analyzed using GraphPad Prism® software (La Jolla, Calif.) to calculate IC₅₀ values from a 4-parameter logistic equation.
The binding affinity of the antagonist peptides and peptide-based compounds of the invention are measured according to the AlphaQuest® Competitive Binding Assay, described above, in Example 1.1. The IC₅₀ values are determined for each test peptide or test compound. The compounds tested are homodimers and homotrimers of peptides comprising the amino sequence set forth in SEQ ID NOs: 33 and 34, linked by DIG or TSAT, respectively.

Row | Molecule | EC50 (Jurkat cells) | EC50 (HCT-116 cells) | EC50, Jurkat antagonist assay (inhibition of TRAIL ligand-induced apoptosis) [1] | IC50 [2]
1 | CC(=O)N[C@@H](Cc1c[nH]c2ccccc12)C(=O)N[C@@H](CC(=O)O)C(=O)N[C@H]1CSSC[C@@H](C(=O)N[C@H](C(=O)N[C@@H](CCCCNC(=O)COCC(=O)NCCCC[C@H](NC(=O)[C@@H](NC(=O)[C@@H]2CSSC[C@H](NC(=O)[C@H](CC(=O)O)NC(=O)[C@H](Cc3c[nH]c4ccccc34)NC(C)=O)C(=O)N[C@@H](CC(C)C)C(=O)N[C@@H](C(C)C)C(=O)N[C@@H](CC(=O)O)C(=O)N[C@@H](CCCNC(=N)N)C(=O)N3CCC[C@H]3C(=O)NCC(=O)N[C@@H](CCCNC(=N)N)C(=O)N[C@@H](CCCNC(=N)N)C(=O)N[C@@H](CCC(N)=O)C(=O)N2)C(C)C)C(=O)N[C@@H](CC(C)C)C(=O)N[C@@H](CCC(=O)O)C(=O)N[C@@H](CCCNC(=N)N)C(N)=O)C(=O)N[C@@H](CC(C)C)C(=O)N[C@@H](CCC(=O)O)C(=O)N[C@@H](CCCNC(=N)N)C(N)=O)C(C)C)NC(=O)[C@H](CCC(N)=O)NC(=O)[C@H](CCCNC(=N)N)NC(=O)[C@H](CCCNC(=N)N)NC(=O)CNC(=O)[C@@H]2CCCN2C(=O)[C@H](CCCNC(=N)N)NC(=O)[C@H](CC(=O)O)NC(=O)[C@H](C(C)C)NC(=O)[C@H](CC(C)C)NC1=O [SEQ ID NO: 31 homodimer] (I: Ac-WDCLVDRPGRRQCVKLER-NH2 / II: Ac-WDCLVDRPGRRQCVKLER-NH2; disulfide I:3-I:13, II:3-II:13 (inferred); linker I:15-II:15 via Diglycolyl (inferred)) | > 22000 nM | – | – | –
2 | Ac-WDCLDNRIGK(TSAT)RQCVRA-NH2 (disulfide 3-13 (inferred); also: homotrimer joined by TSAT linker at Lys10) [peptide homotrimer based on the monomer amino acid sequence of SEQ ID NO: 34, TSAT linker] | – | – | 323 nM | 0.038 nM
3 | Ac-WDCLDNRIGK(DIG)RQCVRA-NH2 (disulfide 3-13 (inferred); also: homodimer joined by DIG linker at Lys10, also called 34 Dimer DIG) [peptide homodimer based on the monomer amino acid sequence of SEQ ID NO: 34, DIG linker] | – | – | 1580 nM | 0.06 nM

Continued, values first:

Row | EC50 (Jurkat cells) | EC50 (HCT-116 cells) | EC50, Jurkat antagonist assay (inhibition of TRAIL ligand-induced apoptosis) [1] | IC50 [2] | Molecule
4 | 1300 to 1660 nM | – | – | – | CC(=O)N[C@@H](Cc1c[nH]c2ccccc12)C(=O)N[C@@H](CC(=O)O)C(=O)N[C@H]1CSSC[C@@H](C(=O)N[C@H](C(=O)N[C@@H](CCCNC(=N)N)C(=O)N[C@@H](CC(C)C)C(=O)N[C@@H](CCC(=O)O)C(=O)N[C@@H](CCCCNC(=O)COCC(=O)NCCCC[C@H](NC(=O)[C@H](CCC(=O)O)NC(=O)[C@H](CC(C)C)NC(=O)[C@H](CCCNC(=N)N)NC(=O)[C@@H](NC(=O)[C@@H]2CSSC[C@H](NC(=O)[C@H](CC(=O)O)NC(=O)[C@H](Cc3c[nH]c4ccccc34)NC(C)=O)C(=O)N[C@@H](CC(C)C)C(=O)N[C@@H](C(C)C)C(=O)N[C@@H](CC(=O)O)C(=O)N[C@@H](CCCNC(=N)N)C(=O)N3CCC[C@H]3C(=O)NCC(=O)N[C@@H](CCCNC(=N)N)C(=O)N[C@@H](CCCNC(=N)N)C(=O)N[C@@H](CCC(N)=O)C(=O)N2)C(C)C)C(N)=O)C(N)=O)C(C)C)NC(=O)[C@H](CCC(N)=O)NC(=O)[C@H](CCCNC(=N)N)NC(=O)[C@H](CCCNC(=N)N)NC(=O)CNC(=O)[C@@H]2CCCN2C(=O)[C@H](CCCNC(=N)N)NC(=O)[C@H](CC(=O)O)NC(=O)[C@H](C(C)C)NC(=O)[C@H](CC(C)C)NC1=O [SEQ ID NO: 29 homodimer] (I: Ac-WDCLVDRPGRRQCVRLEK-NH2 / II: Ac-WDCLVDRPGRRQCVRLEK-NH2; disulfide I:3-I:13, II:3-II:13 (inferred); linker I:18-II:18 via Diglycolyl (inferred))
5 | 611 to 1090 nM | – | – | – | CC(=O)N[C@@H](Cc1c[nH]c2ccccc12)C(=O)N[C@@H](CC(=O)O)C(=O)N[C@H]1CSSC[C@@H](C(=O)N[C@H](C(=O)N[C@@H](CCCNC(=N)N)C(=O)N[C@@H](CC(C)C)C(=O)N[C@@H](CCC(=O)O)C(=O)N[C@@H](CCCNC(=N)N)C(=O)N[C@@H](CCCCNC(=O)COCC(=O)NCCCC[C@H](NC(=O)[C@H](CCCNC(=N)N)NC(=O)[C@H](CCC(=O)O)NC(=O)[C@H](CC(C)C)NC(=O)[C@H](CCCNC(=N)N)NC(=O)[C@@H](NC(=O)[C@@H]2CSSC[C@H](NC(=O)[C@H](CC(=O)O)NC(=O)[C@H](Cc3c[nH]c4ccccc34)NC(C)=O)C(=O)N[C@@H](CC(C)C)C(=O)N[C@@H](C(C)C)C(=O)N[C@@H](CC(=O)O)C(=O)N[C@@H](CCCNC(=N)N)C(=O)N3CCC[C@H]3C(=O)NCC(=O)N[C@@H](CCCNC(=N)N)C(=O)N[C@@H](CCCNC(=N)N)C(=O)N[C@@H](CCC(N)=O)C(=O)N2)C(C)C)C(N)=O)C(N)=O)C(C)C)NC(=O)[C@H](CCC(N)=O)NC(=O)[C@H](CCCNC(=N)N)NC(=O)[C@H](CCCNC(=N)N)NC(=O)CNC(=O)[C@@H]2CCCN2C(=O)[C@H](CCCNC(=N)N)NC(=O)[C@H](CC(=O)O)NC(=O)[C@H](C(C)C)NC(=O)[C@H](CC(C)C)NC1=O [SEQ ID NO: 30 homodimer] (I: Ac-WDCLVDRPGRRQCVRLERK-NH2 / II: Ac-WDCLVDRPGRRQCVRLERK-NH2; disulfide I:3-I:13, II:3-II:13 (inferred); linker I:19-II:19 via Diglycolyl (inferred))
6 | – | ~480 nM | – | – | I: Ac-WDCLDNRIGRRQCVKL-NH2 / II: Ac-WDCLDNRIGRRQCVKL-NH2 / III: Ac-WDCLDNRIGRRQCVKL-NH2 (disulfide I:3-I:13, II:3-II:13, III:3-III:13 (inferred); linker I:15-II:15-III:15 via X1 (inferred)) [SEQ ID NO: 19 homotrimer]
7 | – | – | 5440 nM | 0.111 nM | Ac-WDCLDNRIGK(DIG)RQCVR-NH2 (disulfide 3-13 (inferred); also: homodimer joined by DIG linker at Lys10, also called 33 Dimer DIG) [peptide homodimer based on the monomer amino acid sequence of SEQ ID NO: 33, DIG linker]
